According to US20260152573A1 (ARGENX, published 2026):
Numbering of substitutions follows the chain as printed. Names may count otherwise.

B1: Alb23 (VHH)
VHH: EVQLLESGGGLVQPGGSLRLSCAASGFTFRSFGMSWVRQAPGKGPEWVSSISGSGSDTLYADSVKGRFTISRDNSKNTLYLQMNSLRPEDTAVYYCTIGGSLSRSSQGTLVTVSS
notes: VHH alone, injected in solution; also called VHH-Alb23_Parental (#1); Alb23 parental
B2: Alb23 G99A (VHH)
VHH: B1 VHH with G99A
notes: VHH alone
B3: Alb23 G33A/S101A (VHH)
VHH: B1 VHH with G33A, S101A
notes: VHH alone
B4: Alb23 G100A (VHH)
VHH: B1 VHH with G100A
notes: VHH alone
B5: Alb23 M34A (VHH)
VHH: B1 VHH with M34A
notes: VHH alone
B6: Alb23 L59A (VHH)
VHH: B1 VHH with L59A
notes: VHH alone
B7: mAb37-OA-ABDEG (antibody, human IgG1, kappa)
heavy: QVQLVQSGAEVMKPGSSVKVSCKASGYTFSWYHLEWVRQAPGHGLEWMGEIDPGTFTTNYNEKFKARVTFTADTSTSTAYMELSSLRSEDTAVYYCARFSHFSGSNHDYFDYWGQGTLVTVSSASTKGPSVFPLAPSSKSTSGGTAALGCLVKDYFPEPVTVSWNSGALTSGVHTFPAVLQSSGLYSLSSVVTVPSSSLGTQTYICNVNHKPSNTKVDKKVEPKSCDKTHTCPPCPAPELLGGPSVFLFPPKPKDTLYITREPEVTCVVVDVSHEDPEVKFNWYVDGVEVHNAKTKPREEQYNSTYRVVSVLTVLHQDWLNGKEYKCKVSNKALPAPIEKTISKAKGQPREPQVYTLPPSRDELTKNQVSLWCLVKGFYPSDIAVEWESNGQPENNYKTTPPVLDSDGSFFLYSKLTVDKSRWQQGNVFSCSVMHEALKFHYTQKSLSLSPG
light: EIVMTQSPATLSVSPGERATLSCRASQSIGTNIHWYQQKPGQAPRLLIYYASESISGIPARFSGSGSGTEFTLTISSLQSEDFAVYYCQQSWSWPTTFGGGTKVEIKRTVAAPSVFIFPPSDEQLKSGTASVVCLLNNFYPREAKVQWKVDNALQSGNSQESVTEQDSKDSTYSLSSTLTLSKADYEKHKVYACEVTHQGLSSPVTKSFNRGEC
chain: DKTHTCPPCPAPELLGGPSVFLFPPKPKDTLYITREPEVTCVVVDVSHEDPEVKFNWYVDGVEVHNAKTKPREEQYNSTYRVVSVLTVLHQDWLNGKEYKCKVSNKALPAPIEKTISKAKGQPREPQVYTLPPSRDELTKNQVSLSCAVKGFYPSDIAVEWESNGQPENNYKTTPPVLDSDGSFFLVSKLTVDKSRWQQGNVFSCSVMHEALKFHYTQKSLSLSPG
notes: it is not used here as a chain; also called one-armed NT-mAb37 Fab attached to Fc-ABDEG via natural hinge region
B8: OA-Alb23-Fc-ABDEG (Fc fusion)
chain: EVQLLESGGGLVQPGGSLRLSCAASGFTFRSFGMSWVRQAPGKGPEWVSSISGSGSDTLYADSVKGRFTISRDNSKNTLYLQMNSLRPEDTAVYYCTIGGSLSRSSQGTLVTVSSDKTHTCPPCPAPELLGGPSVFLFPPKPKDTLYITREPEVTCVVVDVSHEDPEVKFNWYVDGVEVHNAKTKPREEQYNSTYRVVSVLTVLHQDWLNGKEYKCKVSNKALPAPIEKTISKAKGQPREPQVYTLPPSRDELTKNQVSLWCLVKGFYPSDIAVEWESNGQPENNYKTTPPVLDSDGSFFLYSKLTVDKSRWQQGNVFSCSVMHEALKFHYTQKSLSLSPG
Fc: B7 chain
B9: TA-Fc-ABDEG-Alb23 (Fc fusion)
chain: DKTHTCPPCPAPELLGGPSVFLFPPKPKDTLYITREPEVTCVVVDVSHEDPEVKFNWYVDGVEVHNAKTKPREEQYNSTYRVVSVLTVLHQDWLNGKEYKCKVSNKALPAPIEKTISKAKGQPREPQVYTLPPSRDELTKNQVSLTCLVKGFYPSDIAVEWESNGQPENNYKTTPPVLDSDGSFFLYSKLTVDKSRWQQGNVFSCSVMHEALKFHYTQKSLSLSPGGGGGSGGGGSGGGGSGGGGSEVQLLESGGGLVQPGGSLRLSCAASGFTFRSFGMSWVRQAPGKGPEWVSSISGSGSDTLYADSVKGRFTISRDNSKNTLYLQMNSLRPEDTAVYYCTIGGSLSRSSQGTLVTVSS
notes: also called Fc-ABDEG-Alb23 (two-armed)
B10: 2H11-v15 fused at the C-terminus of Fc-ABDEG (two-armed) (Fc fusion)
chain: GGGGSGGGGSGGGGSGGGGSELQVVESGGGLVQAGGSLRLSCAASGRTFRSNTMGWFRQAPGKEREFVAAITWSGGTTYYADSVKGRFAISGDNAKNTVYLQMNSLKPEDTAVYYCAAEGPKWEPWNGIYHPAAFGSWGQGTQVTVSS
notes: not shown: Fc-ABDEG domain
B11: 2H11-v16 fused at the C-terminus of Fc-ABDEG (two-armed) (Fc fusion)
chain: B10 chain with A134D, F135A
notes: not shown: Fc-ABDEG domain
B12: TA-Alb23-Fc-ABDEG (Fc fusion)
chain: B8 chain with W261T
notes: Two Alb23 VHH fragments at the N-termini of both Fc domains of efgartigimod; also called two-armed N-terminal anti-HSA-Fc-ABDEG

Columns and labels:
human serum albumin [1] = target: T1, human serum albumin (human, UniProt P02768 25-609); test: SPR Biacore 8K+ SCK, albumin on chip, pH 5.5
T1 construct: Immobilised on SPR chips; also added in solution in the FcRn occupancy assays; also called HSA; humanSA

[2] = target: T2, cynomolgus monkey serum albumin (cynomolgus monkey, UniProt A2V9Z4 25-608); test: SPR Biacore 8K+ SCK, albumin on chip, pH 7.4
T2 construct: Immobilised on SPR chips; also called cynoSA; cynomolgus albumin

human serum albumin [3] = target: T1, human serum albumin; test: SPR Biacore 8K+ SCK, albumin on chip, pH 7.4
[4] = target: T2, cynomolgus monkey serum albumin; test: SPR Biacore 8K+ SCK, albumin on chip, pH 5.5
[5] = target: T2, cynomolgus monkey serum albumin; test: SPR Biacore 8K+ SCK, albumin on chip, pH 7.4; remark: listed apart in the source
human serum albumin [6] = target: T1, human serum albumin; test: SPR Biacore 8K+ SCK, albumin on chip, pH 7.4; pH 7.4
mouse serum albumin = target: T3, mouse serum albumin (mouse, UniProt P07724 25-608); test: SPR Biacore 8K+ SCK, albumin on chip, pH 7.4
T3 construct: Immobilised on SPR chips; also called mouseSA; MSA

human serum albumin [7] = target: T1, human serum albumin; test: SPR Biacore 8K+ SCK, albumin on chip, pH 7.4; remark: listed apart in the source
human serum albumin [8] = target: T1, human serum albumin; test: SPR Biacore 8K+ SCK, albumin on chip, pH 7.4; remark: listed apart in the source
human serum albumin [9] = target: T1, human serum albumin; test: SPR Biacore 8K+ SCK, albumin on chip, ratio of KD
[10] = target: T2, cynomolgus monkey serum albumin; test: SPR Biacore 8K+ SCK, albumin on chip, ratio of KD
[11] = target: T4, neonatal Fc receptor (FcRn), endogenous in U937 cells (human, UniProt P55899 24-365; P61769 21-119); test: cell-based FcRn occupancy assay on U937 cells, flow cytometry; free FcRn stained with anti-FcRn-Fab AF647
T4 construct: whole, on cells; Free FcRn was stained intracellularly after fixation and permeabilisation
T4 sequence (P55899 24-365 limits assumed, chain 1 of 2): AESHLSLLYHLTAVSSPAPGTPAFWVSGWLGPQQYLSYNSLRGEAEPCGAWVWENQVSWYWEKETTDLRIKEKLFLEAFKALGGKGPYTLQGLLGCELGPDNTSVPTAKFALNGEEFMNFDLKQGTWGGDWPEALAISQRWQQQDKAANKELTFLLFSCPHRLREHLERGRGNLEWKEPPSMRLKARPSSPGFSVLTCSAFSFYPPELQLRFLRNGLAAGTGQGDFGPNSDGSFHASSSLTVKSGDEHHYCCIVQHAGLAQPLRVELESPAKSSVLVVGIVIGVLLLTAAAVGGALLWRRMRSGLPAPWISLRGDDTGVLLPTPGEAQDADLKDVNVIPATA
T4 sequence (P61769 21-119 limits assumed, chain 2 of 2): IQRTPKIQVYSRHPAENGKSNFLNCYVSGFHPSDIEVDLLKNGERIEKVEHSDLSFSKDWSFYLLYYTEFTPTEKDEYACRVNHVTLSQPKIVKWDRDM

[12] = target: T4, neonatal Fc receptor (FcRn), endogenous …; test: FcRn occupancy, FACS, U937 cells, without albumin
Experimental: (§1) Next, FcRn occupancy was tested using a cell-based FcRn occupancy assay in the presence or absence of albumin. […] Cells (HEK FcRn mut or U937) were plated in a 96-well microplate. Cells were incubated with test article for two hours, shaking at 37° C., pH 7.4 in FACS buffer. Plates were then transferred immediately on ice and cells were collected by centrifugation at 4° C. Cells stained for viability in FACS buffer at pH 6 and then fixed/permeabilized in permeabilization buffer at pH 6. […] Cells were analyzed by FACS, ensuring that they are kept on ice until immediately prior to analysis.

[13] = target: T4, neonatal Fc receptor (FcRn), endogenous …; test: FcRn occupancy, FACS, U937 cells, with albumin
Experimental: as §1

human serum albumin [14] = target: T1, human serum albumin; test: SPR (Biacore), albumin binding at pH 5.5 and pH 7.4; concentration not given; the legend says only albumin, the example names albumin coated and construct flown over
human serum albumin [15] = target: T1, human serum albumin; test: SPR Biacore 3000, HSA on chip, pH 5.5
human serum albumin [16] = target: T1, human serum albumin; test: SPR Biacore 3000, HSA on chip, pH 7.4
human serum albumin [17] = target: T1, human serum albumin; test: SPR Biacore 3000, HSA on chip, ratio of R0 at pH 5.5 and pH 7.4

Row | Binder | Kd (human serum albumin [1]) [nM] | Kd [2] [nM] | Kd (human serum albumin [3]) [nM] | Kd [4] [nM] | Kd [5] [nM] | koff (human serum albumin [1]) [s⁻¹] | kon (human serum albumin [1]) [M⁻¹ s⁻¹] | Kd (mouse serum albumin) [nM] | Kd (human serum albumin [7]) [nM] | koff (human serum albumin [7]) [s⁻¹] | kon (human serum albumin [7]) [M⁻¹ s⁻¹] | fold decrease in affinity compared to the parental Alb23 VHH fragment (human serum albumin [8]) [fold] | koff [4] [s⁻¹] | kon [4] [M⁻¹ s⁻¹] | KD pH 5.5/pH 7.4 (human serum albumin [9]) | koff [5] [s⁻¹] | kon [5] [M⁻¹ s⁻¹] | KD pH 5.5/pH 7.4 [10] | also measured
1 | B1 | 1.42 | 2.68 | 2.37 | 1.32 | 2.68 |  |  |  |  |  |  |  |  |  |  |  |  |  | Kd (human serum albumin [6]): 2.37 nM
2 | B2 | 42.5 | 152 | 100 | 47.2 | 152 | 0.0473 | 1.11e+06 | 73.1 | 100 | 0.0954 | 955000 | ≥ 10 | 0.0495 | 1.05e+06 | 0.43 | 0.0809 | 533000 | 0.31 | 
3 | B3 | 55 | 146 | 116 | 61.6 | 146 | 0.0672 | 1.22e+06 | 118 | 116 | 0.133 | 1.15e+06 | ≥ 10 | 0.0711 | 1.15e+06 | 0.47 | 0.129 | 881000 | 0.42 | 
4 | B4 | 19.3 | 37.9 | 30.6 | 21.5 | 37.9 | 0.0184 | 950000 | 87.8 | 30.6 | 0.0232 | 758000 | ≥ 10 | 0.0195 | 905000 | 0.63 | 0.0266 | 701000 | 0.57 | 
5 | B5 | 73.8 | 182 | 175 | 76 | 182 | 0.0837 | 1.13e+06 | 149 | 175 | 0.226 | 1.29e+06 | ≥ 10 | 0.0831 | 1.09e+06 | 0.42 | 0.356 | 1.95e+06 | 0.42 | 
6 | B6 | 28.6 | 55.6 | 51 | 25.6 | 55.6 | 0.0268 | 935000 | 354 | 51 | 0.0451 | 885000 | ≥ 10 | 0.0241 | 940000 | 0.56 | 0.0444 | 797000 | 0.46 | 
7 | B7 |  |  |  |  |  |  |  |  |  |  |  |  |  |  |  |  |  |  | IC50 (read off the curve) [11]: ~1 nM
8 | B8 |  |  |  |  |  |  |  |  |  |  |  |  |  |  |  |  |  |  | IC50 [12]: 8.5 nM; % max occupancy [13]: 51.1%; IC50 [13]: 25 nM
9 | B9 |  |  |  |  |  |  |  |  |  |  |  |  |  |  |  |  |  |  | binding result (human serum albumin [14]): binds; % max occupancy [13]: 69.7%; IC50 [13]: 14.5 nM
10 | B10 |  |  |  |  |  |  |  |  |  |  |  |  |  |  |  |  |  |  | R0 pH 5.5 (human serum albumin [15]): 235 RU; koff (human serum albumin [15]): 0.00174 s⁻¹; R0 pH 7.4 (human serum albumin [16]): 0.635 RU; koff (human serum albumin [16]): 0.0025 s⁻¹; R0 5.5/7.4 (human serum albumin [17]): 370
11 | B11 |  |  |  |  |  |  |  |  |  |  |  |  |  |  |  |  |  |  | R0 pH 5.5 (human serum albumin [15]): 8.91 RU; koff (human serum albumin [15]): 0.00301 s⁻¹; R0 pH 7.4 (human serum albumin [16]): 0.571 RU; koff (human serum albumin [16]): 0.00193 s⁻¹; R0 5.5/7.4 (human serum albumin [17]): 16
12 | B12 |  |  |  |  |  |  |  |  |  |  |  |  |  |  |  |  |  |  | IC50 [12]: 7.5 nM; % max occupancy [13]: 39.1%; IC50 [13]: 389 nM
